# Test results reported in patent US20160158293A1, “Treatment of Ocular Conditions Using Progenitor Cells” (JANSSEN BIOTECH, INC., priority 2014, published 2016).
# B1: Nogo-A: myelin protein Nogo-A (R&D Systems), growth-inhibiting coating (protein, UniProt Q9NQC3 1-1192, looked up)
# Reticulon-4: MEDLDQSPLVSSSDSPPRPQPAFKYQFVREPEDEEEEEEEEEEDEDEDLEELEVLERKPAAGLSAAPVPTAPAAGAPLMDFGNDFVPPAPRGPLPAAPPVAPERQPSWDPSPVSSTVPAPSPLSAAAVSPSKLPEDDEPPARPPPPPPASVSPQAEPVWTPPAPAPAAPPSTPAAPKRRGSSGSVDETLFALPAASEPVIRSSAENMDLKEQPGNTISAGQEDFPSVLLETAASLPSLSPLSAASFKEHEYLGNLSTVLPTEGTLQENVSEASKEVSEKAKTLLIDRDLTEFSELEYSEMGSSFSVSPKAESAVIVANPREEIIVKNKDEEEKLVSNNILHNQQELPTALTKLVKEDEVVSSEKAKDSFNEKRVAVEAPMREEYADFKPFERVWEVKDSKEDSDMLAAGGKIESNLESKVDKKCFADSLEQTNHEKDSESSNDDTSFPSTPEGIKDRSGAYITCAPFNPAATESIATNIFPLLGDPTSENKTDEKKIEEKKAQIVTEKNTSTKTSNPFLVAAQDSETDYVTTDNLTKVTEEVVANMPEGLTPDLVQEACESELNEVTGTKIAYETKMDLVQTSEVMQESLYPAAQLCPSFEESEATPSPVLPDIVMEAPLNSAVPSAGASVIQPSSSPLEASSVNYESIKHEPENPPPYEEAMSVSLKKVSGIKEEIKEPENINAALQETEAPYISIACDLIKETKLSAEPAPDFSDYSEMAKVEQPVPDHSELVEDSSPDSEPVDLFSDDSIPDVPQKQDETVMLVKESLTETSFESMIEYENKEKLSALPPEGGKPYLESFKLSLDNTKDTLLPDEVSTLSKKEKIPLQMEELSTAVYSNDDLFISKEAQIRETETFSDSSPIEIIDEFPTLISSKTDSFSKLAREYTDLEVSHKSEIANAPDGAGSLPCTELPHDLSLKNIQPKVEEKISFSDDFSKNGSATSKVLLLPPDVSALATQAEIESIVKPKVLVKEAEKKLPSDTEKEDRSPSAIFSAELSKTSVVDLLYWRDIKKTGVVFGASLFLLLSLTVFSIVSVTAYIALALLSVTISFRIYKGVIQAIQKSDEGHPFRAYLESEVAISEELVQKYSNSALGHVNCTIKELRRLFLVDDLVDSLKFAVLMWVFTYVGALFNGLTLLILALISLFSVPVIYERHQAQIDHYLGLANKNVKDAMAKIQAKIPGLKRKAE
# Assays:
# [1] = tested on: retinal ganglion cells (RGCs); experiment: Synapse assay: co-localized Bassoon/Homer synaptic puncta by immunocytochemistry; format: cell-based, Sprague-Dawley rat; settings: 32 μM GBP added together with UCM
# From the text: (§1) Retinal Ganglion Cells: Retinal ganglion cells (RGCs) were purified by sequential immuno-panning from P7 (postnatal day 7) Sprague-Dawley rat retinas (Charles River, Wilmington, Mass.) of either sex as previously described (Winzeler A, Wang J T., Cold Spring Harbor Protocols, 2013; 643-652). Briefly, retinas were dissected and dissociated with papain (6 U/mL, Worthington, Burlingame, Calif.). Dissociated cells were panned first with Bandeiraea Simplicifolia Lectin I (BSL, Vector laboratories, Burlingame, Calif.) coated petri dishes to remove immune cells, cell debris and fibroblasts. The unbound cells were transferred to a petri dish coated with anti-Thy1 (clone T11D7) antibody for specific isolation of RGCs. The purified RGCs were gently trypsinized and re-plated onto poly-D-Lysine (PDL) and laminin-coated glass coverslips in 24-well plates (35,000 cells/coverslip). […]
# Synapse formation was assessed by immunocytological analyses of the co-localization of pre-(Bassoon) and post-synaptic (Homer) markers, and electrophysiology. […] Morphologically healthy single cells that were at least two cell diameters from their nearest neighbor were identified randomly by DAPI fluorescence. […]
# [2] = tested on: retinal ganglion cells (RGCs); experiment: Neurite outgrowth assay under growth-inhibiting conditions (CSPG, Nogo-A, MBP); format: cell-based, Sprague-Dawley rat
# From the text: as §1, with “RGCs.” for “RGCs. The purified RGCs were gently trypsinized and re-plated onto poly-D-Lysine (PDL) and laminin-coated glass coverslips in 24-well plates (35,000 cells/coverslip).”
# To test neurite outgrowth under pathologic (i.e. growth-inhibiting) culture conditions, the RGCs (1,500 cells/coverslip) were seeded onto coverslips that were coated with various concentrations of chondroitin sulfate proteoglycan (CSPG, EMD Millipore, Billerica, Mass.), Nogo-A (R&D Systems, Minneapolis, Minn.) or in the presence of soluble myelin basic protein (MBP, 10 ug/mL, Sigma-Aldrich, St. Louis, Mo.). […] At least 30 cells per condition were imaged and analyzed per experiment and the results presented are the average of 2-3 independent experiments. Neuronal morphology was analyzed using neurite outgrowth application module in Metamorph software (Molecular Devices). […]
Molecule,UCM-induced synapse formation in the presence of gabapentin [1],neurite growth inhibited ([2]; at 2 μg/cm^2 coating),coating concentration from which neurite outgrowth is hindered/blocked ([2]; coated coverslips) [μg/cm^2]
"NCC1(CC(=O)O)CCCCC1 [GBP, Gabapentin]",blocked the synaptogenic factors,–,–
B1,–,more than 50%,1
